T1: neuromedin-B preferring receptor (NMB-R) on C6 rodent glioblastoma cells (rodent, UniProt P24053 1-390, limits assumed)
T1 construct: whole, on cells; also called C6/NMB-R
T1 sequence (looked up): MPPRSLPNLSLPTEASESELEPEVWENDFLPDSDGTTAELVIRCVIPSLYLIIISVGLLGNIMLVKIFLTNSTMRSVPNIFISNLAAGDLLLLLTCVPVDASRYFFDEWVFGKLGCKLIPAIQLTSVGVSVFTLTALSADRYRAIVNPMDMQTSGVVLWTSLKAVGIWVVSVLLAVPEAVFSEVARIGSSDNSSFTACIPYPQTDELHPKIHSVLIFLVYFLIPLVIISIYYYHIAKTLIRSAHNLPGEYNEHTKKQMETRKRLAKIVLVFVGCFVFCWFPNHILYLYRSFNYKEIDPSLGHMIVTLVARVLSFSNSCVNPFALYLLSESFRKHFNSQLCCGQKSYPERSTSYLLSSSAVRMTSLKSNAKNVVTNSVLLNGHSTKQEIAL


Assays:
[1] = molecular target: T2, gastrin releasing peptide receptor (GRP-R) (human, UniProt P30550 1-384); assay: 125I-BBN competition, PC3 cells
T2 construct: whole, on cells; also called GRP receptor; BB2
T2 sequence (P30550 whole entry): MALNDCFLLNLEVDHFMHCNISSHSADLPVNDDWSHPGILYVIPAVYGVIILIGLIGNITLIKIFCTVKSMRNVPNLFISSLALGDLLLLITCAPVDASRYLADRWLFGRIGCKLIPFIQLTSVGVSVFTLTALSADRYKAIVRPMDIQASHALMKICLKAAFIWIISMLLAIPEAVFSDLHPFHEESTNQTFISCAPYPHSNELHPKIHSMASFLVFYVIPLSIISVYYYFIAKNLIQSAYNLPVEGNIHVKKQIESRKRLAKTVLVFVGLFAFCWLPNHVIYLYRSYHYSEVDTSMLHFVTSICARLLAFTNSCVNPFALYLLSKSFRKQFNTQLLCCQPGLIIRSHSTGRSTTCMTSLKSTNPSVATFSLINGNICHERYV

[2] = molecular target: T1, neuromedin-B preferring receptor …; assay: 125I-NMB competition, C6 cells

| Binder | IC50 [1] [nM] | IC50 [2] [nM] |
| --- | --- | --- |
| QWAVGHLM (N-term: N,N-dimethylglycine-Ser-Cys(Acm)-Gly-Ser-Lys; C-term amide) [N,N-dimethylglycine-Ser-Cys(Acm)-Gly-SK-QWAVGHLM-NH2] | 2 | – |
| QWAVGHLM (N-term: N,N-dimethylglycine-Ser-Cys(Acm)-Gly-Lys-Glu; C-term amide) [N,N-dimethylglycine-Ser-Cys(Acm)-Gly-KE-QWAVGHLM-NH2] | – | 60 |
| QWAVGHLM (N-term: N,N-dimethylglycine-Ser-Cys(Acm)-Gly-Ser-Arg; C-term amide) [N,N-dimethylglycine-Ser-Cys(Acm)-Gly-SR-QWAVGHLM-NH2] | – | 2 |
